The chains are these.
B1: YK-RSV-009 (protein)
chain: QNITEEFYCSTCSAVSKGYLGALRTGWYTSVILIELSNIKENKCNGTDAKVKLIKQELDKYKNAVTDLQLLMQSTPATGSGSAIASGVAVSKVLHLEGEVNKIKSALLSTNKAVVSLSNGVSVLTFKVLDLKNYIDKQLLPIVNKQSCSIPNIETVIEFQQKNNRLLEITREFSVNAGVTTPVSTYMLTNSELLSLINDMPITNDQKKLMSNNVQIVRQQSYSIMSIIKEEVLAYVVQLPLYGVIDTPCWKLHTSPLCTTNTKEGSNICLTRTDRGWYCDNAGSVSFFPQAETCKVQSNRVFCDTMNSRTLPSEVNLCNVDIFNPKYDCKIMTSKTDVSSSVITSLGAIVSCYGKTKCTASNKNRGIIKTFSNGCDYVSNKGVDTVSVGNTLYYVNKQEGQSLYVKCEPIINFYDPLVFPSSEFDASISQVNEKINQSLAFIRKSDELLHNVNAGKSTTNIMITTIIIVIIVILLSLIAVGLLLY
B2: YK-RSV-048 (protein)
chain: QNITEEFYQSTCSAVSKGYLGALRTGWYTSVITIELSNIKENKCNGTDAKVKLIKQELDKYKNAVTDLQLLMQSTPATGSGSFLGFLCGVGSAIASGVAVSKVLHLEGEVNKIKSALLSTNKAVVSLSNGVSVLTFKVLDLKNYIDKQLLPILNKQSCSIPNIETVIEFQQKNNRLLEITREFSVNAGVTTPVSTYMLTNSELLSLINDMPITNDQKKLMSNNVQIVRQQSYSIMSIIKEEVLAYVVQLPLYGVIDTPCWKLHTSPLCTTNTKEGSNICLTRTDRGWYCDNAGSVSFFPQAETCKVQSNRVFCDTMCSRTLPSEVNLCNVDIFNPKYDCKIMTSKTDVSSSVITSLGAIVSCYGKTKCTASNKNRGIIKTFSNGCDYVSNKGVDTVSVGNTLYYVNKQEGQSLYVKGEPIINFYDPLVFPSDEFDASISQVNEKINQSLAFIRKSDELLHNVNAGKSTTNIMITTIIIVIIVILLSLIAVGLLLY
B3: YK-RSV-050 (protein)
chain: B2 chain with L87C, C88L
B4: YK-RSV-055 (protein)
chain: B1 chain with C9Q, L33T, A83C, V143L, I228C, C407G, S422D
B5: YK-RSV-043 (protein)
chain: B1 chain with C9Q, L33T, T75C, S86C, V143L, C407G, S422D
B6: YK-RSV-057 (protein)
chain: B1 chain with C9Q, L33T, A83C, V143L, I227C, C407G, S422D
B7: YK-RSV-010 (protein)
chain: B1 chain with C9Q, S30C, L124C, C407G

Where a chain is given by its changes, count along the chain named.

The values below come from patent US12514920B1, “Respiratory syncytial virus mRNA vaccine, and preparation method therefor and use thereof” (Hangzhou Tianlong Pharmaceutical Co., Ltd., priority 2024, dated 2026).

The subject of one assay is RSV pre-F antibody (3C12). The experiment in a line: Binding of epitope Φ of RSV F antigen mutants by flow cytometry. The settings on record: flow cytometry; epitope Φ, antibody 3C12. In outline: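 293T cells were transfected with mRNA-LNP (300 ng mRNA) encoding the RSV F mutants and harvested after 16 h. Cells were stained with fluorescent 3C12 (pre-F-specific epitope Φ) or 11A9 (epitope II, pre-F and post-F) for 2 h at 4 °C in the dark, then washed and read by flow cytometry on 1×10^4 cells per measurement.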
(In general: Flow cytometry measures light scatter and fluorescence of single cells or particles in a stream.)
Take B1: the “RSV pre-F antibody (3C12) Epitope Φ (%) binding rate” value is given as 87.4%.
Same read-out and setting: next, B2: 89.6%; B3: 86.5%.

The assay is the same for the next values; noted with them: ratio of epitope Φ (3C12) to epitope II (11A9) binding rate.
With B1, the “Φ/II (%)” value is given as 93.9%.
The same measure, in the same setting: then B4, with 97.0%; and B5, with 95.3%.
B6: the “Φ/II (%)” value came out at 97.1%.
For the molecule B7, the “Φ/II (%)” value is given as 97.3%.
Same read-out and setting: next, B2: 94.2%; B3: 93.0%.

The next assay deals with RSV F antibody (11A9). As to the kind of experiment: ELISA binding of RSV F antigen mutants, epitope II.
Details: not given
The procedure: To investigate the binding of the RSV F antigen mutants to antibodies recognizing different epitopes, the binding amount was determined by an ELISA method in this example.
• 293T cells (purchased from ATCC cell bank); • Primary antibody: RSV pre-F antibody (3C12), epitope ([…] (Novoprotein, Cat. No.: DA101); • RSV pre-F antibody (7H11), epitope Quaternary (Novoprotein, Cat. No.: DA109); • RSV F antibody (11A9), epitope II (Novoprotein, Cat. No.: DA091); • RSV F antibody (4B9), epitope III (Novoprotein, Cat. No.: DA110); • RSV pre-F antibody (7E11), epitope V (Cat. No.: DA119); • Standard: RSV-pre-F trimer protein (Novoprotein, Cat. No.: DRA230); • Secondary antibody: peroxidase AffiniPure goat anti-human IgG (H+L) (Yeasen, Cat. No.: N/A); • Experimental group: mRNA vaccines after screening in Example 5;
Cell culture and transfection, and protein sample preparation: the experimental procedures were the same as in Example 3.
Detection of antigen expression by ELISA: the experimental procedures were the same as in Example 5.
In the present application, the binding of different mutant antigens to antibodies recognizing different epitopes was detected by ELISA, and the strength of the binding of the antigens to the antibodies was measured by the binding amount. (1) The RSV pre-F antibody (3C12) recognizing the epitope Φ binds only to the F protein in the pre-fusion conformation; (2) the RSV pre-F antibody (7H11) recognizes the epitope Quaternary (spanning both epitopes IV and V) and specifically binds to the F protein in the pre-fusion conformation; (3) the RSV F antibody (11A9) recognizing the epitope II can recognize both the pre-fusion and post-fusion conformations of the F protein; (4) the RSV F antibody […] recognizing the epitope III preferentially recognizes the pre-fusion conformation and has relatively weak binding activity for the post-fusion conformation; (5) the RSV pre-F antibody (7E11) recognizing the epitope V binds only to the F protein in the pre-fusion conformation.
As for B1, the “ELISA binding amount, Epitope II, RSV F antibody (11A9)” value turned out to be 203 ng/mL.
The same measure, in the same setting: then B4, with 3856 ng/mL; and B5, with 4610 ng/mL.
Same read-out and setting: then B6, with 2823 ng/mL.
Still for that read-out and setting: next, B7: 336 ng/mL; B2: 2255 ng/mL; B3: 2474 ng/mL.

Staying with this assay, now noted: antibody 11A9, relative to PC-RSV-064.
B1: the “Binding amount to antibody/binding amount of PC-RSV-064 to antibody, Epitope II” value came to 0.10.
B4: the “Binding amount to antibody/binding amount of PC-RSV-064 to antibody, Epitope II” value is listed as 1.84.
The same measure, in the same setting: next, B5: 2.20; B6: 1.34.
Still for that read-out and setting: next, B7: 0.16; B2: 1.07.
With B3, the “Binding amount to antibody/binding amount of PC-RSV-064 to antibody, Epitope II” value is listed as 1.18.
